Reference: IntAct's records for PubMed 31217420

B1: Acid sphingomyelinase-like phosphodiesterase 3b (Homo sapiens), Q92485-2 (parent)
chain: MRLLAWLIFLANWGGARAEPGKFWHIADLHLDPDYKVSKDPFQVCPSAGSQPVPDAGPWGDYLCDSPWALINSSIYAMKEIEPEPDFILWTGDDTPHVPDEKLGEAAVLEIVERLTKLIREVFPDTKVYAALGNHDFHPKNQFPAGSNNIYNQIAELWKPWLSNESIALFKKGAFYCEKLPGPSGAGRIVVLNTNLYYTSNALTADMADPGQQFQWLEDVLTDASKAGDMVYIVGHVPPGFFEKTQNKAWFREGFNEKYLKVVRKHHRVIAGQFFGHHHTDSFRMLYDDAGVPISAMFITPGVTPWKTTLPGVVNGANNPAIRVFEYDRATLSLKVRSPAEARGGGWEGLKCITTFPHSQLIHLPLTTEPQEG

Variants of: B1
Details: with INSR
MRLLAWLIFLANWGGARAEPGKFWHIADLHLDPDYKVSKDPFQVCPSAGSQPVPDAGPWGDYLCDSPWALINSSIYAMKEIEPEPDFILWTGDDTPHVPDEKLGEAAVLEIVERLTKLIREVFPDTKVYAALGNADFHPKNQFPAGSNNIYNQIAELWKPWLSNESIALFKKGAFYCEKLPGPSGAGRIVVLNTNLYYTSNALTADMADPGQQFQWLEDVLTDASKAGDMVYIVGHVPPGFFEKTQNKAWFREGFNEKYLKVVRKHHRVIAGQFFGHHHTDSFRMLYDDAGVPISAMFITPGVTPWKTTLPGVVNGANNPAIRVFEYDRATLSLKVRSPAEARGGGWEGLKCITTFPHSQLIHLPLTTEPQEG [H135A] was tested, and the “effect of a mutation on the interaction” value was “with no effect”.

Variants of: B1
Details: with INSR
Remark: another data set of the same source
For MRLLAWLIFLANWGGARAEPGKFWHIADLHLDPDYKVSKDPFQVCPSAGSQPVPDAGPWGDYLCDSPWALINSSIYAMKEIEPEPDFILWTGDDTPHVPDEKLGEAAVLEIVERLTKLIREVFPDTKVYAALGNADFHPKNQFPAGSNNIYNQIAELWKPWLSNESIALFKKGAFYCEKLPGPSGAGRIVVLNTNLYYTSNALTADMADPGQQFQWLEDVLTDASKAGDMVYIVGHVPPGFFEKTQNKAWFREGFNEKYLKVVRKHHRVIAGQFFGHHHTDSFRMLYDDAGVPISAMFITPGVTPWKTTLPGVVNGANNPAIRVFEYDRATLSLKVRSPAEARGGGWEGLKCITTFPHSQLIHLPLTTEPQEG [H135A], the “effect of a mutation on the interaction” value was “with no effect”.

Variants of: B1
Details: with CAV1, Q03135-1
Sequence of CAV1, Q03135-1 (Q03135 whole entry): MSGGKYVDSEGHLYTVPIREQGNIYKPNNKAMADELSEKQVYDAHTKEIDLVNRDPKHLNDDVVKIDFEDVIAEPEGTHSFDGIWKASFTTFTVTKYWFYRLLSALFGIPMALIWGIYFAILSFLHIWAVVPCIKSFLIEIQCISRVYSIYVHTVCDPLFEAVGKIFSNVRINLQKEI
In the case of MRLLAWLIFLANWGGARAEPGKFWHIADLHLDPDYKVSKDPFQVCPSAGSQPVPDAGPWGDYLCDSPWALINSSIYAMKEIEPEPDFILWTGDDTPHVPDEKLGEAAVLEIVERLTKLIREVFPDTKVYAALGNADFHPKNQFPAGSNNIYNQIAELWKPWLSNESIALFKKGAFYCEKLPGPSGAGRIVVLNTNLYYTSNALTADMADPGQQFQWLEDVLTDASKAGDMVYIVGHVPPGFFEKTQNKAWFREGFNEKYLKVVRKHHRVIAGQFFGHHHTDSFRMLYDDAGVPISAMFITPGVTPWKTTLPGVVNGANNPAIRVFEYDRATLSLKVRSPAEARGGGWEGLKCITTFPHSQLIHLPLTTEPQEG [H135A], the “effect of a mutation on the interaction” value is reported as “with no effect”.
